pKd: −log10 of the molar value. Several values for one entry are separate records, joined by “and”; a condition that tells them apart may be missing. Identical values can stand only once.
Columns and labels:
[1] = biological target: SRP (Ffh bound to 4.5 S RNA) with DACM-labeled Ffh Cys235 (UniProt P0AGD7); experiment: FRET or BRET
[2] = biological target: acrylodan-labeled FtsY Cys356 (UniProt P10121); experiment: other fluorescence titration

**Q.** Which results are given for “BODIPY-FL-labeled FtsY Cys487 (full-length FtsY) (from UniProt P10121 1-497) (receptor)”?
**A.** pKd [1]: 6.79; fold destabilisation of the early complex by SecYEG (against no SecYEG) [1]: > 15 fold

**Q.** “Signal recognition particle (SRP; Ffh bound to 4.5 S RNA) (from UniProt P0AGD7 1-453) (complex)” was tested. Which fold stabilisation of the activated complex by SecYEG (against no SecYEG) [2] did it give?
**A.** 2 fold and 4 fold

Reference: PMC3575545
